Reference: patent US20130005646A1 (Novo Nordisk, published 2013)
Starred links: 1 amine or outer side, 2 acyl side, 3 side chain; linkers in the order of their positions; H or OH if unused. Positions of bridges follow the written chain, without caps; N, C: chain ends. *: point of attachment. C20 diacid = O=C(O)CCCCCCCCCCCCCCCCCCC(=O)*; γGlu = O=C(O)[C@H](CCC(=O)[*:2])N[*:1]

B1: N-alpha-[(S)-4-Carboxy-4-(19-carboxynonadecanoylamino)butyryl]-Gly-[Arg1,His35]-pramlintide (peptide)
peptide: {C20 diacid-γGlu}-GRCNTATCATQRLANFLVHSSNNFGPILPPTNVGSHTY-NH2
modifications: disulfide 3-8
SMILES: CC[C@H](C)[C@H](NC(=O)[C@@H]1CCCN1C(=O)CNC(=O)[C@H](Cc1ccccc1)NC(=O)[C@H](CC(N)=O)NC(=O)[C@H](CC(N)=O)NC(=O)[C@H](CO)NC(=O)[C@H](CO)NC(=O)[C@H](Cc1c[nH]cn1)NC(=O)[C@@H](NC(=O)[C@H](CC(C)C)NC(=O)[C@H](Cc1ccccc1)NC(=O)[C@H](CC(N)=O)NC(=O)[C@H](C)NC(=O)[C@H](CC(C)C)NC(=O)[C@H](CCCNC(=N)N)NC(=O)[C@H](CCC(N)=O)NC(=O)[C@@H](NC(=O)[C@H](C)NC(=O)[C@@H]1CSSC[C@H](NC(=O)[C@H](CCCNC(=N)N)NC(=O)CNC(=O)CC[C@H](NC(=O)CCCCCCCCCCCCCCCCCCC(=O)O)C(=O)O)C(=O)N[C@@H](CC(N)=O)C(=O)N[C@@H]([C@@H](C)O)C(=O)N[C@@H](C)C(=O)N[C@@H]([C@@H](C)O)C(=O)N1)[C@@H](C)O)C(C)C)C(=O)N[C@@H](CC(C)C)C(=O)N1CCC[C@H]1C(=O)N1CCC[C@H]1C(=O)N[C@H](C(=O)N[C@@H](CC(N)=O)C(=O)N[C@H](C(=O)NCC(=O)N[C@@H](CO)C(=O)N[C@@H](Cc1c[nH]cn1)C(=O)N[C@H](C(=O)N[C@@H](Cc1ccc(O)cc1)C(N)=O)[C@@H](C)O)C(C)C)[C@@H](C)O
B2: N-alpha-[(S)-4-Carboxy-4-(19-carboxynonadecanoylamino)butyryl]-[Arg1,Pro37]-pramlintide (peptide)
peptide: {C20 diacid-γGlu}-RCNTATCATQRLANFLVHSSNNFGPILPPTNVGSNTP-NH2
modifications: disulfide 2-7
SMILES: CC[C@H](C)[C@H](NC(=O)[C@@H]1CCCN1C(=O)CNC(=O)[C@H](Cc1ccccc1)NC(=O)[C@H](CC(N)=O)NC(=O)[C@H](CC(N)=O)NC(=O)[C@H](CO)NC(=O)[C@H](CO)NC(=O)[C@H](Cc1c[nH]cn1)NC(=O)[C@@H](NC(=O)[C@H](CC(C)C)NC(=O)[C@H](Cc1ccccc1)NC(=O)[C@H](CC(N)=O)NC(=O)[C@H](C)NC(=O)[C@H](CC(C)C)NC(=O)[C@H](CCCNC(=N)N)NC(=O)[C@H](CCC(N)=O)NC(=O)[C@@H](NC(=O)[C@H](C)NC(=O)[C@@H]1CSSC[C@H](NC(=O)[C@H](CCCNC(=N)N)NC(=O)CC[C@H](NC(=O)CCCCCCCCCCCCCCCCCCC(=O)O)C(=O)O)C(=O)N[C@@H](CC(N)=O)C(=O)N[C@@H]([C@@H](C)O)C(=O)N[C@@H](C)C(=O)N[C@@H]([C@@H](C)O)C(=O)N1)[C@@H](C)O)C(C)C)C(=O)N[C@@H](CC(C)C)C(=O)N1CCC[C@H]1C(=O)N1CCC[C@H]1C(=O)N[C@H](C(=O)N[C@@H](CC(N)=O)C(=O)N[C@H](C(=O)NCC(=O)N[C@@H](CO)C(=O)N[C@@H](CC(N)=O)C(=O)N[C@H](C(=O)N1CCC[C@H]1C(N)=O)[C@@H](C)O)C(C)C)[C@@H](C)O
B3: N-alpha-[(S)-4-Carboxy-4-(19-carboxynonadecanoylamino)butyryl]-[Arg1,His35]-pramlintide (peptide)
peptide: {C20 diacid-γGlu}-RCNTATCATQRLANFLVHSSNNFGPILPPTNVGSHTY-NH2
modifications: disulfide 2-7
SMILES: CC[C@H](C)[C@H](NC(=O)[C@@H]1CCCN1C(=O)CNC(=O)[C@H](Cc1ccccc1)NC(=O)[C@H](CC(N)=O)NC(=O)[C@H](CC(N)=O)NC(=O)[C@H](CO)NC(=O)[C@H](CO)NC(=O)[C@H](Cc1c[nH]cn1)NC(=O)[C@@H](NC(=O)[C@H](CC(C)C)NC(=O)[C@H](Cc1ccccc1)NC(=O)[C@H](CC(N)=O)NC(=O)[C@H](C)NC(=O)[C@H](CC(C)C)NC(=O)[C@H](CCCNC(=N)N)NC(=O)[C@H](CCC(N)=O)NC(=O)[C@@H](NC(=O)[C@H](C)NC(=O)[C@@H]1CSSC[C@H](NC(=O)[C@H](CCCNC(=N)N)NC(=O)CC[C@H](NC(=O)CCCCCCCCCCCCCCCCCCC(=O)O)C(=O)O)C(=O)N[C@@H](CC(N)=O)C(=O)N[C@@H]([C@@H](C)O)C(=O)N[C@@H](C)C(=O)N[C@@H]([C@@H](C)O)C(=O)N1)[C@@H](C)O)C(C)C)C(=O)N[C@@H](CC(C)C)C(=O)N1CCC[C@H]1C(=O)N1CCC[C@H]1C(=O)N[C@H](C(=O)N[C@@H](CC(N)=O)C(=O)N[C@H](C(=O)NCC(=O)N[C@@H](CO)C(=O)N[C@@H](Cc1c[nH]cn1)C(=O)N[C@H](C(=O)N[C@@H](Cc1ccc(O)cc1)C(N)=O)[C@@H](C)O)C(C)C)[C@@H](C)O
B4: N-alpha-[(S)-4-Carboxy-4-(19-carboxynonadecanoylamino)butyryl]-Gly-[Arg1,Glu14,His17,His35]-pramlintide (peptide)
peptide: {C20 diacid-γGlu}-GRCNTATCATQRLAEFLHHSSNNFGPILPPTNVGSHTY-NH2
modifications: disulfide 3-8
SMILES: CC[C@H](C)[C@H](NC(=O)[C@@H]1CCCN1C(=O)CNC(=O)[C@H](Cc1ccccc1)NC(=O)[C@H](CC(N)=O)NC(=O)[C@H](CC(N)=O)NC(=O)[C@H](CO)NC(=O)[C@H](CO)NC(=O)[C@H](Cc1c[nH]cn1)NC(=O)[C@H](Cc1c[nH]cn1)NC(=O)[C@H](CC(C)C)NC(=O)[C@H](Cc1ccccc1)NC(=O)[C@H](CCC(=O)O)NC(=O)[C@H](C)NC(=O)[C@H](CC(C)C)NC(=O)[C@H](CCCNC(=N)N)NC(=O)[C@H](CCC(N)=O)NC(=O)[C@@H](NC(=O)[C@H](C)NC(=O)[C@@H]1CSSC[C@H](NC(=O)[C@H](CCCNC(=N)N)NC(=O)CNC(=O)CC[C@H](NC(=O)CCCCCCCCCCCCCCCCCCC(=O)O)C(=O)O)C(=O)N[C@@H](CC(N)=O)C(=O)N[C@@H]([C@@H](C)O)C(=O)N[C@@H](C)C(=O)N[C@@H]([C@@H](C)O)C(=O)N1)[C@@H](C)O)C(=O)N[C@@H](CC(C)C)C(=O)N1CCC[C@H]1C(=O)N1CCC[C@H]1C(=O)N[C@H](C(=O)N[C@@H](CC(N)=O)C(=O)N[C@H](C(=O)NCC(=O)N[C@@H](CO)C(=O)N[C@@H](Cc1c[nH]cn1)C(=O)N[C@H](C(=O)N[C@@H](Cc1ccc(O)cc1)C(N)=O)[C@@H](C)O)C(C)C)[C@@H](C)O
B5: N-alpha-[(S)-4-Carboxy-4-(19-carboxynonadecanoylamino)butyryl]-[Arg1,Glu14,His17,His35]-pramlintide (peptide)
peptide: {C20 diacid-γGlu}-RCNTATCATQRLAEFLHHSSNNFGPILPPTNVGSHTY-NH2
modifications: disulfide 2-7
SMILES: CC[C@H](C)[C@H](NC(=O)[C@@H]1CCCN1C(=O)CNC(=O)[C@H](Cc1ccccc1)NC(=O)[C@H](CC(N)=O)NC(=O)[C@H](CC(N)=O)NC(=O)[C@H](CO)NC(=O)[C@H](CO)NC(=O)[C@H](Cc1c[nH]cn1)NC(=O)[C@H](Cc1c[nH]cn1)NC(=O)[C@H](CC(C)C)NC(=O)[C@H](Cc1ccccc1)NC(=O)[C@H](CCC(=O)O)NC(=O)[C@H](C)NC(=O)[C@H](CC(C)C)NC(=O)[C@H](CCCNC(=N)N)NC(=O)[C@H](CCC(N)=O)NC(=O)[C@@H](NC(=O)[C@H](C)NC(=O)[C@@H]1CSSC[C@H](NC(=O)[C@H](CCCNC(=N)N)NC(=O)CC[C@H](NC(=O)CCCCCCCCCCCCCCCCCCC(=O)O)C(=O)O)C(=O)N[C@@H](CC(N)=O)C(=O)N[C@@H]([C@@H](C)O)C(=O)N[C@@H](C)C(=O)N[C@@H]([C@@H](C)O)C(=O)N1)[C@@H](C)O)C(=O)N[C@@H](CC(C)C)C(=O)N1CCC[C@H]1C(=O)N1CCC[C@H]1C(=O)N[C@H](C(=O)N[C@@H](CC(N)=O)C(=O)N[C@H](C(=O)NCC(=O)N[C@@H](CO)C(=O)N[C@@H](Cc1c[nH]cn1)C(=O)N[C@H](C(=O)N[C@@H](Cc1ccc(O)cc1)C(N)=O)[C@@H](C)O)C(C)C)[C@@H](C)O

target: T1, human amylin 3(a) receptor (human calcitonin receptor + RAMP-3) (human, UniProt P30988 25-474; O60896 24-148); assay: cell-based or functional assay
T1 sequence (looked up) 1: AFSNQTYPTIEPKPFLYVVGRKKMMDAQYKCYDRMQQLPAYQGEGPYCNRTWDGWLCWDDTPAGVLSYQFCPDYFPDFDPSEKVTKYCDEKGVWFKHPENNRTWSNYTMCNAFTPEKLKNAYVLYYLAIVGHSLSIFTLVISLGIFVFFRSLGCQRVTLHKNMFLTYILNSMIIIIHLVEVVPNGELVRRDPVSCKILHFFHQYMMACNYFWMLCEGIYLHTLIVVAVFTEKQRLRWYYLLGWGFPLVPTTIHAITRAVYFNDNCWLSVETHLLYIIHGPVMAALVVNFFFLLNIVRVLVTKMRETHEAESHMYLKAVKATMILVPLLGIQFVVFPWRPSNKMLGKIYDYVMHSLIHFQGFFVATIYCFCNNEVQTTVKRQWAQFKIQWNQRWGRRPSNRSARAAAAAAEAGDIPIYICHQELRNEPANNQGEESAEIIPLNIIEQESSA
T1 sequence (looked up) 2: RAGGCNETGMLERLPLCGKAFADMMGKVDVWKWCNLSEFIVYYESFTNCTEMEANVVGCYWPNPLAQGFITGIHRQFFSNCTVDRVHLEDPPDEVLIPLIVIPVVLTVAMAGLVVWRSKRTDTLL

Binder	Amylin receptor human EC50 [nM]
B1	0.045
B2	0.034
B3	0.0745
B4	0.0675
B5	0.082

target: T2, human calcitonin (a) receptor (human, UniProt P30988 25-474); assay: cell-based or functional assay
T2 sequence (looked up): T1 sequence (looked up) 1

Binder	CTa receptor human EC50 [nM]
B1	0.0875
B2	0.0385
B3	0.193
B4	0.0895
B5	0.175
